In this experiment the target is T1, KDM5A1-797 (Homo sapiens, UniProt P29375).
T1 construct: KDM5A1-797 was cloned into a pFASTBAC HTA vector; His (N, cleaved yes); made in house; host or cells: Sf21 insect cells (baculovirus)
T1 sequence (P29375 1-797): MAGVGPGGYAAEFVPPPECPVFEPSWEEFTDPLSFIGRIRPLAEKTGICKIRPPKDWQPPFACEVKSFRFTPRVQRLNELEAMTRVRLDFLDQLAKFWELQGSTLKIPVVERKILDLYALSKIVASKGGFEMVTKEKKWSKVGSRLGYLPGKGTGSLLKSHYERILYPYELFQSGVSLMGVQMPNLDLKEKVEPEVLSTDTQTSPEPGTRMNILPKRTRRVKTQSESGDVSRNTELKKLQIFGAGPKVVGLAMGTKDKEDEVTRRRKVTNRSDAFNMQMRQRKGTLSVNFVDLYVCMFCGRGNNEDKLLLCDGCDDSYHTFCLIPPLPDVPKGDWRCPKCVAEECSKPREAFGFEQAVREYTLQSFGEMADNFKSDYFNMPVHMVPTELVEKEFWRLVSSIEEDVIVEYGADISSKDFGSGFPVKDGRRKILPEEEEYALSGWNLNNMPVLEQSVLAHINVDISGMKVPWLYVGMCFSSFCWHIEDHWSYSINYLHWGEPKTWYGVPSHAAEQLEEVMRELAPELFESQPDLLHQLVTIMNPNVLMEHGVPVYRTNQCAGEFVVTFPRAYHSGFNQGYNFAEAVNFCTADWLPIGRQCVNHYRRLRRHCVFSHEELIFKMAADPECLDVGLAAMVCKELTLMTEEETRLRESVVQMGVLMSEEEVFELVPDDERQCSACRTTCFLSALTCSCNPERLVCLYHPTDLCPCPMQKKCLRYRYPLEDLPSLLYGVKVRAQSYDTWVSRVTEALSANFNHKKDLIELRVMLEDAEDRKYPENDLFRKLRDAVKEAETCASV
Nature of the experiment: HDX-MS of KDM5A with peptides. As for the experimental part: Solution-phase amide HDX experiments were carried out with a fully automated system (CTC HTS PAL, LEAP Technologies, Carrboro, NC; housed inside a 4 °C cabinet).
Peptides were identified using tandem MS (MS^2 or MS/MS) experiments performed with a LTQ linear ion trap mass spectrometer (LTQ Orbitrap XL with ETD, Thermo Fisher, San Jose, CA) over a 70 min gradient. Product ion spectra were acquired in a data-dependent mode and the five most abundant ions were selected for the product ion analysis per scan event. The MS/MS *.raw data files were converted to *.mgf files and then submitted to MASCOT ver2.3 (Matrix Science, London, UK) for peptide identification. […]
For differential HDX experiments, 5 μl of 20 μM KDM5A1-797 was diluted to 25 μl with D2O-containing HDX buffer (40 mM HEPES, 50 mM KCl, pH 7.9) and incubated at 4 °C for 10, 30, 60, 900, and 3600 s. […] Percent deuterium exchange values for peptide isotopic envelopes at each time point were calculated and processed using HDX Workbench. […] The intensity weighted mean m/z centroid value of each peptide envelope was calculated and subsequently converted into a percentage of deuterium incorporation. Statistical significance for the differential HDX data is determined by an unpaired t-test for each time point, a procedure that is integrated into the HDX Workbench software. […]

Turning to “Ac-H3K4me3 21mer: N-terminally acetylated 21mer H3K4me3 peptide, catalytic domain substrate”, the “perturbation of deuterium uptake” value (Ac-H3K4me3 21mer alone (500 µM) vs apo, 4 °C, triplicate) is “no perturbations are observed”.

Consider “H3: unmodified N-terminal H3 tail 10mer peptide (H3 Ala1-Ser10), PHD1 effector ligand”, for which, under “H3 10mer (100 µM) and Ac-H3K4me3 21mer (500 µM) both present vs apo”, the “deuterium exchange of PHD1 residues Gly300-Ala342, both peptides” value is reported as “increased protection observed in the PHD1 domain”.

These data come from PMC6327041 (Nature Communications, 2019).
